Data taken from patent US12630600B2 (MEDIMMUNE LIMITED, priority 2022, dated 2026).
Starred links: 1 amine or outer side, 2 acyl side, 3 side chain; linkers in the order of their positions; H or OH if unused. Non-standard residues stand in square brackets, D forms with d. Groups on a side chain read outwards from the residue. Primed or numbered codes have the meaning given here. No end group written: not given here. *: point of attachment. PEG12 = NCCOCCOCCOCCOCCOCCOCCOCCOCCOCCOCCOCCOCCC(=O)O; C18 diacid = O=C(O)CCCCCCCCCCCCCCCCC(=O)*; PEG8 = NCCOCCOCCOCCOCCOCCOCCOCCOCCC(=O)O; Dip = N[C@H](C(=O)O)C(c1ccccc1)c1ccccc1; γGlu = O=C(O)[C@H](CCC(=O)[*:2])N[*:1]; Stearoyl = CCCCCCCCCCCCCCCCCC(=O)*; Palmitoyl = CCCCCCCCCCCCCCCC(=O)*; αMeF = C[C@](N)(Cc1ccccc1)C(=O)O; Myristoyl = CCCCCCCCCCCCCC(=O)*; (PEG)2 = polyethylene glycol 2; PEG2′ = polyethylene glycol 2; PEG4 = NCCOCCOCCOCCOCCC(=O)O; PEG4′ = polyethylene glycol; Dodecyl = CCCCCCCCCCCC*; PEG2 = NCCOCCOCCC(=O)O; AEEA = NCCOCCOCC(=O)O; Aib = CC(C)(N)C(=O)O

B1: Peptide 64 (peptide)
peptide: HSQGS[αMeF]TSDVSK[Dip]LDSK([PEG2′-PEG2′-γGlu-γGlu-Palmitoyl])AAQD[αMeF]VE[Aib]IINT-NH2
B2: Peptide 61 (peptide)
peptide: HSQGS[αMeF]TSDVSK[Dip]LDSK([(PEG)2-γGlu-(PEG)2-γGlu-Stearoyl])AAQD[αMeF]VE[Aib]IINT-NH2
B3: Peptide 67 (peptide)
peptide: H[Aib]QGS[αMeF]TSDVSK[Dip]LDSK([PEG2′-PEG2′-γGlu-Palmitoyl])AAQD[αMeF]VQ[Aib]IAN-NH2
B4: Peptide 79 (peptide)
peptide: HSQGS[αMeF]TSDVSK[αMeF]LDSK([PEG2′-PEG2′-γGlu-γGlu-Palmitoyl])AAQD[αMeF]VQ[Aib]LEAGG-NH2
B5: Peptide 72 (peptide)
peptide: H[Aib]QGS[αMeF]TSDVSK[αMeF]LDSK([PEG4′-γGlu-γGlu-Palmitoyl])AAQD[αMeF]VE[Aib]LEAGG-NH2
B6: Peptide 55 (peptide)
peptide: HSQGS[αMeF]TSDVSK[Dip]LDSK([(PEG)2-(PEG)2-γGlu-γGlu-Stearoyl])AAQD[αMeF]VQ[Dip]LEA-NH2
B7: Peptide 7 (peptide)
peptide: H[Aib]HGS[αMeF]TSDVSK[αMeF]LDSK([γGlu-C18 diacid])AAQD[αMeF]VEWIANT-NH2
modifications: N-terminus assumed
SMILES: CC[C@H](C)[C@H](NC(=O)[C@H](Cc1c[nH]c2ccccc12)NC(=O)[C@H](CCC(=O)O)NC(=O)[C@@H](NC(=O)[C@](C)(Cc1ccccc1)NC(=O)[C@H](CC(=O)O)NC(=O)[C@H](CCC(N)=O)NC(=O)[C@H](C)NC(=O)[C@H](C)NC(=O)[C@H](CCCCNC(=O)CC[C@H](NC(=O)CCCCCCCCCCCCCCCCC(=O)O)C(=O)O)NC(=O)[C@H](CO)NC(=O)[C@H](CC(=O)O)NC(=O)[C@H](CC(C)C)NC(=O)[C@](C)(Cc1ccccc1)NC(=O)[C@H](CCCCN)NC(=O)[C@H](CO)NC(=O)[C@@H](NC(=O)[C@H](CC(=O)O)NC(=O)[C@H](CO)NC(=O)[C@@H](NC(=O)[C@](C)(Cc1ccccc1)NC(=O)[C@H](CO)NC(=O)CNC(=O)[C@H](Cc1c[nH]cn1)NC(=O)C(C)(C)NC(=O)[C@@H](N)Cc1c[nH]cn1)[C@@H](C)O)C(C)C)C(C)C)C(=O)N[C@@H](C)C(=O)N[C@@H](CC(N)=O)C(=O)N[C@H](C(N)=O)[C@@H](C)O
B8: Peptide 60 (peptide)
peptide: HSQGS[αMeF]TSDVSK[Dip]LDSK([γGlu-(PEG)2-γGlu-(PEG)2-Stearoyl])AAQD[αMeF]VE[Aib]IINT-NH2
B9: Peptide 63 (peptide)
peptide: HSQGS[αMeF]TSDVSK[Dip]LDSK([(PEG)2-(PEG)2-γGlu-γGlu-Myristoyl])AAQD[αMeF]VE[Aib]IINT-NH2
B10: Peptide 58 (peptide)
peptide: HSQGS[αMeF]TSDVSK[Dip]LDSK([PEG12-γGlu-γGlu-Stearoyl])AAQD[αMeF]VE[Aib]IINT-NH2
modifications: N-terminus assumed
SMILES: CCCCCCCCCCCCCCCCCC(=O)N[C@@H](CCC(=O)N[C@@H](CCC(=O)NCCOCCOCCOCCOCCOCCOCCOCCOCCOCCOCCOCCOCCC(=O)NCCCC[C@H](NC(=O)[C@H](CO)NC(=O)[C@H](CC(=O)O)NC(=O)[C@H](CC(C)C)NC(=O)[C@@H](NC(=O)[C@H](CCCCN)NC(=O)[C@H](CO)NC(=O)[C@@H](NC(=O)[C@H](CC(=O)O)NC(=O)[C@H](CO)NC(=O)[C@@H](NC(=O)[C@](C)(Cc1ccccc1)NC(=O)[C@H](CO)NC(=O)CNC(=O)[C@H](CCC(N)=O)NC(=O)[C@H](CO)NC(=O)[C@@H](N)Cc1c[nH]cn1)[C@@H](C)O)C(C)C)C(c1ccccc1)c1ccccc1)C(=O)N[C@@H](C)C(=O)N[C@@H](C)C(=O)N[C@@H](CCC(N)=O)C(=O)N[C@@H](CC(=O)O)C(=O)N[C@@](C)(Cc1ccccc1)C(=O)N[C@H](C(=O)N[C@@H](CCC(=O)O)C(=O)NC(C)(C)C(=O)N[C@H](C(=O)N[C@H](C(=O)N[C@@H](CC(N)=O)C(=O)N[C@H](C(N)=O)[C@@H](C)O)[C@@H](C)CC)[C@@H](C)CC)C(C)C)C(=O)O)C(=O)O
B11: Peptide 56 (peptide)
peptide: HSQGS[αMeF]TSDVSK[Dip]LDSK([PEG4-γGlu-γGlu-Stearoyl])AAQD[αMeF]VE[Aib]IINT-NH2
modifications: N-terminus assumed
SMILES: CCCCCCCCCCCCCCCCCC(=O)N[C@@H](CCC(=O)N[C@@H](CCC(=O)NCCOCCOCCOCCOCCC(=O)NCCCC[C@H](NC(=O)[C@H](CO)NC(=O)[C@H](CC(=O)O)NC(=O)[C@H](CC(C)C)NC(=O)[C@@H](NC(=O)[C@H](CCCCN)NC(=O)[C@H](CO)NC(=O)[C@@H](NC(=O)[C@H](CC(=O)O)NC(=O)[C@H](CO)NC(=O)[C@@H](NC(=O)[C@](C)(Cc1ccccc1)NC(=O)[C@H](CO)NC(=O)CNC(=O)[C@H](CCC(N)=O)NC(=O)[C@H](CO)NC(=O)[C@@H](N)Cc1c[nH]cn1)[C@@H](C)O)C(C)C)C(c1ccccc1)c1ccccc1)C(=O)N[C@@H](C)C(=O)N[C@@H](C)C(=O)N[C@@H](CCC(N)=O)C(=O)N[C@@H](CC(=O)O)C(=O)N[C@@](C)(Cc1ccccc1)C(=O)N[C@H](C(=O)N[C@@H](CCC(=O)O)C(=O)NC(C)(C)C(=O)N[C@H](C(=O)N[C@H](C(=O)N[C@@H](CC(N)=O)C(=O)N[C@H](C(N)=O)[C@@H](C)O)[C@@H](C)CC)[C@@H](C)CC)C(C)C)C(=O)O)C(=O)O
B12: Peptide 6 (peptide)
peptide: H[Aib]HGS[αMeF]TSDVSK[αMeF]LDSK([AEEA-AEEA-γGlu-C18 diacid])AAQD[αMeF]VEWIAN-NH2
modifications: N-terminus assumed
SMILES: CC[C@H](C)[C@H](NC(=O)[C@H](Cc1c[nH]c2ccccc12)NC(=O)[C@H](CCC(=O)O)NC(=O)[C@@H](NC(=O)[C@](C)(Cc1ccccc1)NC(=O)[C@H](CC(=O)O)NC(=O)[C@H](CCC(N)=O)NC(=O)[C@H](C)NC(=O)[C@H](C)NC(=O)[C@H](CCCCNC(=O)COCCOCCNC(=O)COCCOCCNC(=O)CC[C@H](NC(=O)CCCCCCCCCCCCCCCCC(=O)O)C(=O)O)NC(=O)[C@H](CO)NC(=O)[C@H](CC(=O)O)NC(=O)[C@H](CC(C)C)NC(=O)[C@](C)(Cc1ccccc1)NC(=O)[C@H](CCCCN)NC(=O)[C@H](CO)NC(=O)[C@@H](NC(=O)[C@H](CC(=O)O)NC(=O)[C@H](CO)NC(=O)[C@@H](NC(=O)[C@](C)(Cc1ccccc1)NC(=O)[C@H](CO)NC(=O)CNC(=O)[C@H](Cc1c[nH]cn1)NC(=O)C(C)(C)NC(=O)[C@@H](N)Cc1c[nH]cn1)[C@@H](C)O)C(C)C)C(C)C)C(=O)N[C@@H](C)C(=O)N[C@@H](CC(N)=O)C(N)=O
B13: Peptide 59 (peptide)
peptide: HSQGS[αMeF]TSDVSK[Dip]LDSK([γGlu-γGlu-(PEG)2-(PEG)2-Stearoyl])AAQD[αMeF]VE[Aib]IINT-NH2
B14: Peptide 57 (peptide)
peptide: HSQGS[αMeF]TSDVSK[Dip]LDSK([PEG8-γGlu-γGlu-Stearoyl])AAQD[αMeF]VE[Aib]IINT-NH2
modifications: N-terminus assumed
SMILES: CCCCCCCCCCCCCCCCCC(=O)N[C@@H](CCC(=O)N[C@@H](CCC(=O)NCCOCCOCCOCCOCCOCCOCCOCCOCCC(=O)NCCCC[C@H](NC(=O)[C@H](CO)NC(=O)[C@H](CC(=O)O)NC(=O)[C@H](CC(C)C)NC(=O)[C@@H](NC(=O)[C@H](CCCCN)NC(=O)[C@H](CO)NC(=O)[C@@H](NC(=O)[C@H](CC(=O)O)NC(=O)[C@H](CO)NC(=O)[C@@H](NC(=O)[C@](C)(Cc1ccccc1)NC(=O)[C@H](CO)NC(=O)CNC(=O)[C@H](CCC(N)=O)NC(=O)[C@H](CO)NC(=O)[C@@H](N)Cc1c[nH]cn1)[C@@H](C)O)C(C)C)C(c1ccccc1)c1ccccc1)C(=O)N[C@@H](C)C(=O)N[C@@H](C)C(=O)N[C@@H](CCC(N)=O)C(=O)N[C@@H](CC(=O)O)C(=O)N[C@@](C)(Cc1ccccc1)C(=O)N[C@H](C(=O)N[C@@H](CCC(=O)O)C(=O)NC(C)(C)C(=O)N[C@H](C(=O)N[C@H](C(=O)N[C@@H](CC(N)=O)C(=O)N[C@H](C(N)=O)[C@@H](C)O)[C@@H](C)CC)[C@@H](C)CC)C(C)C)C(=O)O)C(=O)O
B15: Peptide 65 (peptide)
peptide: HSQGS[αMeF]TSDVSK[Dip]LDSK([PEG2-PEG2-γGlu-γGlu-C18 diacid])AAQD[αMeF]VE[Aib]IINT-NH2
B16: Peptide 62 (peptide)
peptide: HSQGS[αMeF]TSDVSK[Dip]LDSK([(PEG)2-(PEG)2-γGlu-γGlu-Dodecyl])AAQD[αMeF]VE[Aib]IINT-NH2

Key:
human GLP-1 receptor = human GLP-1 receptor (human, UniProt P43220); test: cell-based or functional assay
human glucagon receptor = human glucagon receptor (human, UniProt P47871); test: cell-based or functional assay

Row | cAMP production, hGLP-1R EC50 (pM) (human GLP-1 receptor) | cAMP production, hGluc-R EC50 (pM) (human glucagon receptor) | Binder
1 | 2.57 pM | 3.06 pM | B1
2 | 4.12 pM | 9.55 pM | B2
3 | 2.43 pM | 9.49 pM | B3
4 | 1.73 pM | 10.7 pM | B4
5 | 3.42 pM | 73.7 pM | B5
6 | 18.8 pM | 19.1 pM | B6
7 | 84.6 pM | 30.7 pM | B7
8 | 5.16 pM | 21.1 pM | B8
9 | 3.14 pM | 2.49 pM | B9
10 | 3.9 pM | 11.3 pM | B10
11 | 4.86 pM | 10.9 pM | B11
12 | 568 pM | 516 pM | B12
13 | 6.18 pM | 28.4 pM | B13
14 | 9.09 pM | 16.9 pM | B14
15 | 1230 pM | 2060 pM | B15
16 | 10.1 pM | 15.2 pM | B16
